This series concerns the molecule itself. In words: negative-stain electron microscopy.

B1: HIV-1 Rev (natural protein, UniProt P04616 1-116, looked up)
chain: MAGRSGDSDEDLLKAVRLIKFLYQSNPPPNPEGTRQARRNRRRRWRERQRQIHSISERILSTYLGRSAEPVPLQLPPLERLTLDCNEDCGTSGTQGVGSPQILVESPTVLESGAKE
B1: the binding result is reported as “binds”.

(Values after publication PMC2180222 (The Journal of Cell Biology, 2000).)
